The results in this text go back to patent US20250026849A1 (ARCELLX, published 2025).

To fix the notation:
B1: D domain of SEQ ID NO: 637 (designed binder)
chain: MGSWIEFMDRLWAIDQRLWALGGSEAELAWFEEEIAWFEEELQVYKGKGNPEVEALEWEATAISEELWAYRHN
B2: D domain of SEQ ID NO: 613 (designed binder)
chain: MGSWIEFFHRLDAIQDRLDALGGSEAELAYFEWAIADFEHMLQLYKGKGNPEVEALQFEAFAIEGELYAYRHN
B3: D domain of SEQ ID NO: 622 (designed binder)
chain: MGSWEEFEDRLFAIDSRLWALGGSEAELAEFENIIASFEEVLQEYKGKGNPEVEALSVEAFAIDRELGAYRHN
B4: D domain of SEQ ID NO: 631 (designed binder)
chain: MGSWYEFDERLDAIFDRLWALGGSEAELAYFEQVIATFEKTLQRYKGKGNPEVEALDTEAKAISWELDAYRHN
B5: D domain of SEQ ID NO: 627 (designed binder)
chain: MGSWVEFDSRLAAIDYRLEALGGSEAELAWFEYTIANFEHTLQMYKGKGNPEVEALVYEAHAIATELQAYRHN
B6: D domain of SEQ ID NO: 619 (designed binder)
chain: MGSWHEFEKRLYAIEDRLIALGGSEAELAWFEDSIAWFEWDLQMYKGKGNPEVEALNEEADAIYQELDAYRHN
B7: D domain of SEQ ID NO: 632 (designed binder)
chain: MGSWYEFQERLDAIDSRLWALGGSEAELAWFEYTIAEFEKELQMYKGKGNPEVEALGTEAVAISEELMAYRHN
B8: D domain of SEQ ID NO: 607 (designed binder)
chain: MGSWYEFEDRLAAIWDRLNALGGSEAELAIFEWDIAWFEEGLQEYKGKGNPEVEALKHEASAIQTELFAYRHN
B9: D domain of SEQ ID NO: 629 (designed binder)
chain: MGSWIEFDERLDAIDFRLWALGGSEAELAWFEGWIAEFESDLQLYKGKGNPEVEALNEEANAIFHELSAYRHN
B10: D domain of SEQ ID NO: 611 (designed binder)
chain: MGSWYEFVSRLDAIEYRLWALGGSEAELAWFEWDIADFEQGLQFYKGKGNPEVEALAQEANAIGSELTAYRHN
B11: D domain of SEQ ID NO: 628 (designed binder)
chain: MGSWTEFDERLDAIDWRLEALGGSEAELAWFEGDIALFEQYLQVYKGKGNPEVEALMEEADAIKAELDAYRHN
B12: D domain of SEQ ID NO: 616 (designed binder)
chain: MGSWLEFEYRLDAIYDRLFALGGSEAELAAFEQDIADFEKYLQYYKGKGNPEVEALWEEADAIMWELFAYRHN
B13: D domain of SEQ ID NO: 620 (designed binder)
chain: MGSWIEFEDRLDAITDRLWALGGSEAELAEFEHQIAFFEEDLQWYKGKGNPEVEALHMEAEAIMEELGAYRHN
B14: D domain of SEQ ID NO: 625 (designed binder)
chain: MGSWFEFDDRLEAIFDRLWALGGSEAELAMFEFAIAEFEDALQEYKGKGNPEVEALYEEAVAIDEELYAYRHN
B15: D domain of SEQ ID NO: 630 (designed binder)
chain: MGSWWEFDSRLDAIDFRLWALGGSEAELAWFEVEIADFEDWLQLYKGKGNPEVEALWHEADAIVTELYAYRHN
B16: D domain of SEQ ID NO: 615 (designed binder)
chain: MGSWFEFEYRLDAIIDRLFALGGSEAELAEFESMIANFEYSLQEYKGKGNPEVEALYFEADAIVDELTAYRHN
B17: D domain of SEQ ID NO: 633 (designed binder)
chain: MGSWEEFEDRLWAIDGRLYALGGSEAELAWFEQWIATFEEDLQDYKGKGNPEVEALEYEASAIFEELEAYRHN
B18: D domain of SEQ ID NO: 635 (designed binder)
chain: MGSWFEFNDRLDAISERLSALGGSEAELAYFEWQIAVFEKTLQNYKGKGNPEVEALTLEANAIFEELEAYRHN
B19: D domain of SEQ ID NO: 634 (designed binder)
chain: MGSWFEFGDRLEAIDERLYALGGSEAELAQFEWWIAEFEHHLQDYKGKGNPEVEALEYEADAIWGELHAYRHN
B20: D domain of SEQ ID NO: 605 (designed binder)
chain: MGSWAEFDSRLIAIFDRLWALGGSEAELAWFEDDIAQFEQHLQAYKGKGNPEVEALRQEADAITFELKAYRHN
B21: D domain of SEQ ID NO: 612 (designed binder)
chain: MGSWEEFDYRLYAIQDRLYALGGSEAELAFFEWEIADFEHMLQMYKGKGNPEVEALFQEADAIDAELHAYRHN
B22: D domain of SEQ ID NO: 640 (designed binder)
chain: MGSWYEFEWRLDAIDRRLWALGGSEAELADFEEEIADFEWMLQNYKGKGNPEVEALVDEASAIQTELWAYRHN
B23: D domain of SEQ ID NO: 610 (designed binder)
chain: MGSWFEFTIRLEAIQDRLDALGGSEAELAWFEWDIAEFEEGLQFYKGKGNPEVEALHTEADAIMNELVAYRHN
B24: D domain of SEQ ID NO: 618 (designed binder)
chain: MGSWYEFEERLDAIEDRLIALGGSEAELAIFEDIIAFFEQDLQYYKGKGNPEVEALEMEAEAISIELDAYRHN
B25: D domain of SEQ ID NO: 621 (designed binder)
chain: MGSWMEFEDRLMAIVDRLWALGGSEAELADFEWNIAMFEEELQWYKGKGNPEVEALGDEAEAIEWELYAYRHN
B26: D domain of SEQ ID NO: 603 (designed binder)
chain: MGSWSEFVDRLDAIFDRLWALGGSEAELAWFEDTIAHFEWNLQEYKGKGNPEVEALNGEADAITDELHAYRHN
B27: D domain of SEQ ID NO: 601 (designed binder)
chain: MGSWYEFDDRLWAIFDRLFALGGSEAELAFFEDSIAEFEEELQHYKGKGNPEVEALYLEAWAIENELGAYRHN
B28: D domain of SEQ ID NO: 638 (designed binder)
chain: MGSWEEFNWRLRAIDERLFALGGSEAELAWFEYDIAEFEEQLQVYKGKGNPEVEALRVEAAAIAEELYAYRHN
B29: D domain of SEQ ID NO: 617 (designed binder)
chain: MGSWHEFEERLMAIEDRLWALGGSEAELAEFEQWIALFEYDLQEYKGKGNPEVEALGMEAFAINNELSAYRHN
B30: D domain of SEQ ID NO: 639 (designed binder)
chain: MGSWWEFEIRLDAIDERLWALGGSEAELAWFEQSIAFFENDLQVYKGKGNPEVEALRWEANAIIEELFAYRHN
B31: D domain of SEQ ID NO: 604 (designed binder)
chain: MGSWAEFDSRLDAIAQRLFALGGSEAELAHFEDFIAQFEYSLQEYKGKGNPEVEALSNEADAIFNELKAYRHN
B32: D domain of SEQ ID NO: 606 (designed binder)
chain: MGSWTEFEERLEAIWDRLYALGGSEAELAAFEWDIAYFEDGLQEYKGKGNPEVEALFMEAEAIIRELKAYRHN
B33: D domain of SEQ ID NO: 614 (designed binder)
chain: MGSWYEFSSRLNAIDDRLWALGGSEAELAYFETDIADFESLLQWYKGKGNPEVEALLNEADAIDYELYAYRHN
B34: D domain of SEQ ID NO: 608 (designed binder)
chain: MGSWLEFESRLWAIWDRLDALGGSEAELAHFEQDIADFEMSLQEYKGKGNPEVEALIREAEAIETELYAYRHN
B35: D domain of SEQ ID NO: 623 (designed binder)
chain: MGSWEEFLFRLEAIQDRLWALGGSEAELAWFEYEIASFEDVLQSYKGKGNPEVEALSTEAKAIDYELFAYRHN
B36: D domain of SEQ ID NO: 626 (designed binder)
chain: MGSWFEFDARLMAINDRLWALGGSEAELAAFEYHIALFEDQLQMYKGKGNPEVEALTLEAVAINEELWAYRHN
B37: D domain of SEQ ID NO: 602 (designed binder)
chain: MGSWNEFVERLSAIDHRLWALGGSEAELADFEQQIAEFEIHLQEYKGKGNPEVEALDFEADAIFDELLAYRHN
B38: D domain of SEQ ID NO: 624 (designed binder)
chain: MGSWVEFDNRLFAIDERLWALGGSEAELAWFEEEIASFEDNLQKYKGKGNPEVEALQLEAFAIMEELDAYRHN
B39: D domain of SEQ ID NO: 609 (designed binder)
chain: MGSWMEFEDRLIAIWARLDALGGSEAELAWFEADIADFEESLQEYKGKGNPEVEALIFEAIAINKELMAYRHN
B40: D domain of SEQ ID NO: 636 (designed binder)
chain: MGSWVEFMDRLEAIEERLSALGGSEAELAFFEWEIAEFEEHLQVYKGKGNPEVEALEWEALAITEELAAYRHN

The target in this test is T1, CD123 (Homo sapiens (Human), UniProt P26951 19-305, limits assumed).
T1 construct: The CD123 construct used in the ELISA is not described; also called CD123-Signal
T1 sequence: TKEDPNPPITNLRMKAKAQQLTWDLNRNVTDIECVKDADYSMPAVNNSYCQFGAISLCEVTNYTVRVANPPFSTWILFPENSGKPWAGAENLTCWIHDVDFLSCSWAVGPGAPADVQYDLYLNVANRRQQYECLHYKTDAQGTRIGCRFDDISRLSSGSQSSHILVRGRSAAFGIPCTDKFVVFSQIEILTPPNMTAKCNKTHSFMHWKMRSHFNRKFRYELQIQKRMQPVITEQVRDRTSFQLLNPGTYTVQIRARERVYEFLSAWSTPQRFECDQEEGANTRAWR
Briefly: ELISA. On the set-up: unit not given here. In general terms: ELISA stands for enzyme-linked immunosorbent assay.
In turn, B1 returned an ELISA_avg of 6.5.

As to B2, the ELISA_avg was found to be 3.5.

For B3, the ELISA_avg came to 3.7.

In turn, B4 had an ELISA_avg of 3.

As for B5, the ELISA_avg was 3.4.

On to B6, for which the ELISA_avg is 3.6.

B7: the ELISA_avg was 5.5.

Take B8: the ELISA_avg is 6.4.

On to B9, for which the ELISA_avg was 7.

As for B10, the ELISA_avg is 3.2.

Consider B11, for which the ELISA_avg turned out to be 4.5.

In turn, B12 had an ELISA_avg of 3.1.

Molecule B13 registered an ELISA_avg of 9.5.

Turning to B14, the ELISA_avg is 4.1.

For the molecule B15, the ELISA_avg was determined as 3.2.

As for B16, the ELISA_avg was found to be 4.

Take B17: the ELISA_avg was 9.4.

In turn, B18 showed an ELISA_avg of 3.9.

Turning to B19, the ELISA_avg amounted to 4.5.

B20 gave an ELISA_avg of 3.6.

For the molecule B21, the ELISA_avg is 4.4.

For B22, the ELISA_avg was determined as 10.

B23 yielded an ELISA_avg of 3.5.

For the molecule B24, the ELISA_avg was found to be 4.1.

Molecule B25 returned an ELISA_avg of 6.8.

In turn, B26 gave an ELISA_avg of 5.3.

Turning to B27, the ELISA_avg was 4.7.

The molecule B28 returned an ELISA_avg of 5.4.

B29: the ELISA_avg stood at 5.8.

As to B30, the ELISA_avg is 3.2.

With B31, the ELISA_avg stood at 3.6.

With B32, the ELISA_avg came to 5.9.

B33 had an ELISA_avg of 3.8.

With B34, the ELISA_avg is 3.4.

B35 gave an ELISA_avg of 8.2.

In the case of B36, the ELISA_avg is 4.

The molecule B37 returned an ELISA_avg of 3.2.

Molecule B38 came in with an ELISA_avg of 3.3.

Molecule B39 registered an ELISA_avg of 3.7.

The molecule B40 registered an ELISA_avg of 4.
